The text below walks through data of the supplement of paper PMC9170038.

In the series the test system is MS2 coat protein. Nature of the series: apparent KD of MS2 coat protein; higher = weaker reporter binding. The conditions noted are these: Eterna round: R107. The method in brief: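 SNAP-549-labelled MS2 coat protein was titrated onto designed RNA switches that had been transcribed on-chip from Illumina sequencing clusters. Amounts doubled from 0.7 or 1.5 nM to 3 µM in 100 mM Tris-HCl pH 7.5, 80 mM KCl, 4 mM MgCl2, with constant ligand or without. Apparent KD is the median per design of normalised cluster binding-curve fits.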

Setting [1] is: input ligand: theophylline 20 uM.
Setting [2] is: input ligand: theophylline 2 mM.
The mark [3] stands for this setting: input ligand: tryptophan 2.4 mM.

Regarding “GACAUGAGGAUCGAUACCAGCGACAUGAGGAUCACAUGAGGAUCACCCAUGUGUAGUAUACGCCCUUGGCAGCGAACAUGAGGAU [Same State Theophylline B 3]”, the “apparent KD of MS2 coat protein” value reads like this: (input ligand: arginine 13.2 mM) 74.3 nM; (input ligand: none) 51.4 nM; under setting [1], 71.2 nM; under setting [2], 39.2 nM; under setting [3], 32.3 nM.

In the case of “GACAUUAUCUGAAGGAGCGAGGUAAAUAGGGAUGAGCAUACAUGAGGAUCACCCAUGUGGCCUCAGGUAGGUCGCAGAUGAGAUU [Exclusion Arginine B GF26]”, the “apparent KD of MS2 coat protein” value is, setting by setting: (input ligand: arginine 13.2 mM) 41.1 nM; (input ligand: none) 253 nM; under setting [1], 212 nM; under setting [2], 453 nM; under setting [3], 256 nM.

On to “GACCGAUUAUAGUGCGAUUCUCUUGUGGAAGGAGCGCAGAGGACUGCAGGUAGGUCGCCACAUGAGGAUCACCCAUGUCAGGAUA [Esxebiat]”, for which the “apparent KD of MS2 coat protein” value runs as follows: (input ligand: arginine 13.2 mM) 65.6 nM; (input ligand: none) 183 nM; under setting [1], 89.6 nM; under setting [2], 708 nM; under setting [3], 10.6 nM.

In the case of “GACGGGCCUAUUGAUACCAGACCUAGUGACAACAUGAGGAUCACCCAUGUGACGGCAAAAGUCCCUUGGCAGCAAGUAGAAAUAA [theeternabot_sameState_MS2_Theo_B_41]”, the “apparent KD of MS2 coat protein” value runs as follows: (input ligand: arginine 13.2 mM) 14 nM; under setting [1], 16.6 nM; under setting [3], 15.4 nM.

In the case of “GAGGGUGAAUCUCUAGUCCGUUUGACGGAUACCAGCGAGAGGUAUCGCCCUUGGCAGCCGACGACAUGAGGAUCACCCAUGUUAA [#07 Exclusion-TheophyllineA]”, the “apparent KD of MS2 coat protein” value (input ligand: arginine 13.2 mM) came out at 22.2 nM; the “apparent KD of MS2 coat protein” value (input ligand: none) came to 40.6 nM; the “apparent KD of MS2 coat protein” value under setting [1] is 42.6 nM; the “apparent KD of MS2 coat protein” value under setting [2] came to 22 nM; the “apparent KD of MS2 coat protein” value under setting [3] came to 29.3 nM.

Take “GAGGGUGGGUCUCUAAUCCGUUUGACGGAUACCAGCGAGAGAUAUCGCCCUUGGCAGCCGACGACAUGAGGAUCACCCAUGUAAA [#06 Exclusion-TheophyllineA]”: the “apparent KD of MS2 coat protein” value turned out to be 17.1 nM (input ligand: arginine 13.2 mM), 19.6 nM under setting [1] and 16.9 nM under setting [3].

As to “GAGGUCCUGAGAGAUACCAGUGAGGCCACAUGAGGAUCACCCAUGUCCCUCACUCCGGCCCACCCUUGGCAGCUCGGAAGGUAAA [Exclusion Theophylline B GF 23]”, the “apparent KD of MS2 coat protein” value (input ligand: arginine 13.2 mM) worked out at 14.9 nM, the “apparent KD of MS2 coat protein” value under setting [1] was 29.7 nM and the “apparent KD of MS2 coat protein” value under setting [3] was found to be 17.5 nM.

With “GAUAUGGAAACAUGUCAGAUCCUUACCGGUCGAGGACCGGUACGGCCGCCACUCGAAAACGAGGAACAUGAGGAUCACCCAUGUA [Ex Tryptophan A 20]”, the “apparent KD of MS2 coat protein” value (input ligand: arginine 13.2 mM) was 32.7 nM, the “apparent KD of MS2 coat protein” value under setting [1] is 50.4 nM and the “apparent KD of MS2 coat protein” value under setting [2] is 49.5 nM.

For the sequence “GAUAUGGAAACAUGUCAGAUCCUUACCGGUCGAGGACCGGUACGGCCGCCACUCGAAAACGAUGUACAUGAGGAUCACCCAUGUA [Ex Tryptophan A 19]”, the “apparent KD of MS2 coat protein” value was found to be 13.7 nM (input ligand: arginine 13.2 mM); 14 nM (input ligand: none); 16.2 nM under setting [1]; 14.7 nM under setting [2]; 21.6 nM under setting [3].

For the sequence “GAUAUGGAAACAUGUCAGAUCCUUACCGGUCGAGGACCGGUACGGCCGCCACUCGGAAAUAUUGUACAUGAGGAUCACCCAUGUA [Ex Tryptophan A 18]”, the “apparent KD of MS2 coat protein” value turned out to be 14.1 nM (input ligand: arginine 13.2 mM), 16.1 nM under setting [1] and 16.1 nM under setting [2].

As to “GAUCCACAUGAGGAUCACCCAUGUGAGGAUACCAGUACCAGAUCCUACCCUUGGCAGCCUAACCUUCAUUCAACACGAAUAAGAA [theeternabot_sameState_MS2_Theo_A_20]”, the “apparent KD of MS2 coat protein” value is, setting by setting: (input ligand: arginine 13.2 mM) 13.8 nM; under setting [1], 16.7 nM; under setting [3], 15 nM.

“GAUGAUAUUGCAGAUACCAGACACAUGAGGAUCACCCAUGUCGCUGGGUUACUGGGUCGUGUCCCUUGGCAGCUGCGAUAUCAUC [Belize]”: the “apparent KD of MS2 coat protein” value reads like this: (input ligand: arginine 13.2 mM) 33.6 nM; under setting [1], 89.2 nM; under setting [3], 42.1 nM.

Take “GAUUGCAUCGAUUCUCCACUCGCACCUGAUACCAGCGAUAGAAUUCGCCCUUGGCAGCAGUACACAUGAGGAUCACCCAUGUUAU [theeternabot_exclusion_MS2_Theo_A_20]”: the “apparent KD of MS2 coat protein” value runs as follows: (input ligand: arginine 13.2 mM) 25.5 nM; under setting [1], 42.4 nM; under setting [3], 35 nM.

“GAUUGGAUUUGAAGGAGCGUCGAAAAUGGGUAAACAUGAGGAUCACCCAUGUAAAGGGAACGACAGGUAGGUCGCAAAUUUAAUC [AstromonsSSArgB#31]”: the “apparent KD of MS2 coat protein” value by setting is: (input ligand: arginine 13.2 mM) 84.7 nM; (input ligand: none) 111 nM; under setting [1], 148 nM; under setting [2], 213 nM; under setting [3], 162 nM.

Regarding “GAUUUAACAAAAGUUGGAUCAGUGGGUGAACGAGGACCGGUACGGCCGCCACUCGGACAUGAGGAUCACCCAUGUCCAUGUGAAA [AstrosExyTryA#19]”, the “apparent KD of MS2 coat protein” value runs as follows: (input ligand: arginine 13.2 mM) 47.2 nM; (input ligand: none) 129 nM; under setting [1], 167 nM; under setting [2], 121 nM; under setting [3], 77.1 nM.

With “GCACAACAUGAGGAUCACCCAUGUCGAGAUACCAGAACAUAUAUAUUCCCUUGGCAGCUCACACCUUUAAUGUAAAAUUCUUUGG [theeternabot_sameState_MS2_Theo_A_47]”, the “apparent KD of MS2 coat protein” value runs as follows: (input ligand: arginine 13.2 mM) 12 nM; under setting [1], 15.9 nM; under setting [3], 13.9 nM.

Regarding “GCACCAGGUACGGAUACCAGACGUUGCCAAACAGGGUGACAUGAGGAUCACCCAUGUACUGUCCCUUGGCAGCCGUACCUGGUGC [EThB NP+V+V2 #4 +-Same Structure]”, the “apparent KD of MS2 coat protein” value runs as follows: (input ligand: arginine 13.2 mM) 20.2 nM; under setting [1], 53 nM; under setting [3], 22.6 nM.

In the case of “GCAUCCUAGUCGGCCGCCACUACAACAUGAGGAUCACCCAUGUGUGGGAGAUCCGUCCUACGAAGUAGGACCGGGACUAGGAUGC [(T1)-(M1)-(M2)-(T)''-(M)'-(T)'-(T2)_Design5_2/18/17]”, the “apparent KD of MS2 coat protein” value by setting is: (input ligand: arginine 13.2 mM) 110 nM; under setting [1], 337 nM; under setting [2], 324 nM.

With “GCCAUCGGCGGAAGCCGAUGGGAUACAGAAGGAGCGCGGAUUAACGCAGGUAGGUCGCUGGACAUGAGGAUCACCCAUGUAAUAG [SSAA #9]”, the “apparent KD of MS2 coat protein” value reads like this: (input ligand: arginine 13.2 mM) 19.2 nM; (input ligand: none) 22.8 nM; under setting [1], 41.9 nM; under setting [2], 22.5 nM; under setting [3], 18.5 nM.
